Columns and labels:
[1] = molecular target: dTBCE-GFP expressed in Drosophila embryos (Drosophila melanogaster) (UniProt A1Z6J5); experiment: fluorescence microscopy of beads
[2] = molecular target: dTBCE^mutCG-GFP expressed in Drosophila embryos (Drosophila melanogaster) (UniProt A1Z6J5); experiment: fluorescence microscopy of beads

bovine brain tubulin supplemented with 25 % of tubulin-rhodamin (from UniProt Q6B856 1-445) (complex)
mean fluorescence intensity in the tubulin-rhodamine channel [1]: 25.9 a.u.
mean fluorescence intensity in the tubulin-rhodamine channel [2]: 4.7 a.u.

Reference: paper doi:10.1101/2020.01.21.912428
